Data set [1] addresses T1, rDDX5 (UniProt P17844 1-614). Briefly: EMSA; slightly preferred over RNA-ctrl; no defined complex band; Kd only in figure; EMSA: 15 nM RNA, 50 mM NaCl, 50 mM KCl, 50 mM Tris-HCl, 1 mM MgCl2 (pH not stated), 37 C 15 min, 10 ul, 6% native PA gel; Kd by one-site fit with Bmax = 100. The following applies: protein: commercial; label: 5'-biotin; 3'-Cyanine 5; single-stranded. (In EMSA bound probe runs differently from free probe, usually more slowly.)

The target in data set [2] is T1, rDDX5. Kind of data set: EMSA; slightly lower preference than ss(UGCU)4; no defined complex band; Kd only in figure; EMSA: 15 nM RNA, 50 mM NaCl, 50 mM KCl, 50 mM Tris-HCl, 1 mM MgCl2 (pH not stated), 37 C 15 min, 10 ul, 6% native PA gel; Kd by one-site fit with Bmax = 100. The following applies: protein: commercial; label: 5'-biotin; 3'-Cyanine 5; single-stranded.

T1 sequence (P17844 whole entry): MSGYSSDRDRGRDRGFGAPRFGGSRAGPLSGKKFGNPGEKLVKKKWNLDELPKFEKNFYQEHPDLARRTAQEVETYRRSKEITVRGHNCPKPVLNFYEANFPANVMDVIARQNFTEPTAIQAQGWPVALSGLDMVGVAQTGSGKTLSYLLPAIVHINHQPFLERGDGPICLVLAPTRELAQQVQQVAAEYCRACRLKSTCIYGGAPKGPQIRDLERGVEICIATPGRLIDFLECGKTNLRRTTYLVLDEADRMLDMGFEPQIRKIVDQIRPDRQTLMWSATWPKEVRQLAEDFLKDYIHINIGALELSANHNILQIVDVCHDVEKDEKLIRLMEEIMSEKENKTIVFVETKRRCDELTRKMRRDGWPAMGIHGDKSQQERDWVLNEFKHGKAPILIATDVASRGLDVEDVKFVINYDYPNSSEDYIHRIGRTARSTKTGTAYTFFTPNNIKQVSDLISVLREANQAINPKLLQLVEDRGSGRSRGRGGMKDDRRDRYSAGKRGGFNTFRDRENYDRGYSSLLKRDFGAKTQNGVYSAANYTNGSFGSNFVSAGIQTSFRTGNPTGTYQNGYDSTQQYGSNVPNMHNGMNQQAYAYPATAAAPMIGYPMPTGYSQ

As to UUUUUUUUGCUUGCUUGCUUGCUUUUUUUU (ssRNA) [RNA-ss(UGCU)4], in data set [1], the binding result is given as “binds”.

With UUUUUUUUGUCUGGUCCCUCGUUUUUUUU (ssRNA) [RNA-ctrl], the binding result in data set [2] is recorded as “binds”.
